{"source": "paper PMC8396345", "key": {"[1]": {"tested_on": "norovirus GII.2 VLP (VP1) (Norovirus GII.2)", "details": "FRA: 1 nM 32P-aptamer, 0-1500 nM VLP, 60 min, each aptamer's original selection buffer (M1, M6-2, SMV19, SMV21: PBS pH 7.4; others in Table S1, not in material); cited from earlier work"}, "[2]": {"tested_on": "norovirus GII.4 New Orleans VLP (VP1) (Norovirus GII.4 New Orleans)", "assay": "filter binding", "details": "FRA: 1 nM 32P-aptamer, 0-1500 nM VLP, 60 min, each aptamer's original selection buffer (M1, M6-2, SMV19, SMV21: PBS pH 7.4; others in Table S1, not in material)"}, "[3]": {"tested_on": "norovirus P-domain (Norovirus GII.4)", "details": "FRA: 1 nM 32P-aptamer, 0-1500 nM VLP, 60 min, each aptamer's original selection buffer (M1, M6-2, SMV19, SMV21: PBS pH 7.4; others in Table S1, not in material); cited from earlier work"}, "[4]": {"tested_on": "norovirus GII.3 VLP (VP1) (Norovirus GII.3)", "assay": "filter binding", "details": "FRA: 1 nM 32P-aptamer, 0-1500 nM VLP, 60 min, each aptamer's original selection buffer (M1, M6-2, SMV19, SMV21: PBS pH 7.4; others in Table S1, not in material)"}, "[5]": {"tested_on": "norovirus GII.4 Sydney VLP (VP1) (Norovirus GII.4 Sydney)", "assay": "filter binding", "details": "FRA: 1 nM 32P-aptamer, 0-1500 nM VLP, 60 min, each aptamer's original selection buffer (M1, M6-2, SMV19, SMV21: PBS pH 7.4; others in Table S1, not in material)"}, "[6]": {"tested_on": "norovirus P-domain (Norovirus GII.4)", "assay": "filter binding", "details": "FRA: 1 nM 32P-aptamer, 0-1500 nM VLP, 60 min, each aptamer's original selection buffer (M1, M6-2, SMV19, SMV21: PBS pH 7.4; others in Table S1, not in material)"}, "[7]": {"tested_on": "norovirus GI.7 VLP (VP1) (Norovirus GI.7)", "assay": "filter binding", "details": "FRA: 1 nM 32P-aptamer, 0-1500 nM VLP, 60 min, each aptamer's original selection buffer (M1, M6-2, SMV19, SMV21: PBS pH 7.4; others in Table S1, not in material)"}}, "data": [{"sequence": "CACCAGTGTGTTGAGGTTTGAGCACACTGATAGAGTGTCA [SMV19]", "values": [{"measurement": "Kd", "setting": "[1]", "result": 191, "unit": "nM"}, {"measurement": "Kd", "setting": "[2]", "result": 9340, "unit": "nM"}]}, {"sequence": "GAAATTGGGTTCGGGTTTGGGTTGGGATTACTTAGCGATG [Buf-2]", "values": [{"measurement": "Kd", "setting": "[3]", "result": 17, "unit": "nM"}, {"measurement": "Kd", "setting": "[4]", "result": 465, "unit": "nM"}, {"measurement": "Kd", "setting": "[2]", "result": 351, "unit": "nM"}, {"measurement": "Kd", "setting": "[5]", "result": 241, "unit": "nM"}, {"measurement": "binding signal", "setting": "[6]", "result": 100, "unit": "%"}]}, {"sequence": "CCATGTTTTGTAGGTGTAATAGGTCATGTTAGGGTTTCTG [SMV21]", "values": [{"measurement": "Kd", "setting": "[1]", "result": 101, "unit": "nM"}, {"measurement": "Kd", "setting": "[4]", "result": 464, "unit": "nM"}, {"measurement": "Kd", "setting": "[2]", "result": 1780, "unit": "nM"}, {"measurement": "Kd", "setting": "[5]", "result": 1250, "unit": "nM"}]}, {"sequence": "GCTAGCGAATTCCGTACGAAGGGCGAATTCCACATTGGGCTGCAGCCCGGGGGATCC [AG3]", "values": [{"measurement": "Kd", "setting": "[2]", "result": 1030, "unit": "nM"}, {"measurement": "Kd", "setting": "[5]", "result": 313, "unit": "nM"}]}, {"sequence": "TGTTTATGGGGATAAACGTATCTAATTCGTGTACTAATCA [M1]", "values": [{"measurement": "Kd", "setting": "[2]", "result": 963, "unit": "nM"}, {"measurement": "Kd", "setting": "[5]", "result": 388, "unit": "nM"}]}, {"sequence": "TGGGAAGAGGTCCGGTAAATGCAGGGTCAGCCCGGAGAG [M6-2]", "values": [{"measurement": "Kd", "setting": "[2]", "result": 928, "unit": "nM"}, {"measurement": "Kd", "setting": "[5]", "result": 1130, "unit": "nM"}]}, {"sequence": "GTCTGTAGTAGGGAGGATGGTCCGGGGCCCCGAGACGACGTTATCAGGC [Beier]", "values": [{"measurement": "Kd", "setting": "[7]", "result": 63, "unit": "nM"}, {"measurement": "Kd", "setting": "[4]", "result": 115, "unit": "nM"}, {"measurement": "Kd", "setting": "[2]", "result": 105, "unit": "nM"}, {"measurement": "Kd", "setting": "[5]", "result": 71, "unit": "nM"}]}]}
